The series deals with Saccharomyces cerevisiae. Briefly: protein stability index of tFT-peptide fusion (C-terminal peptide) (PSI (0-1 scale)); higher = more stable (slower turnover). As to conditions: temperature: 30 C. Here is the method: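 MPS profiling in S. cerevisiae of the yeast C-terminome library: the last 12 aa of each annotated ORF are fused to the C-terminus of a sfGFP-mCherry timer, after a GGGS linker. Cells are FACS-sorted into 8 mCherry/sfGFP bins and deep-sequenced. PSI runs from 0 (unstable) to 1 (stable); wild type and das1Δ backgrounds, two technical replicates each.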

Where [1] appears, read: genetic background: das1 deletion.

± gives the standard deviation of the averaged measurements.

The values below come from the supplement of paper PMC10724198.

For the sequence LIHNFNSRYCHE [LEE1 C-terminal 12 aa], the protein stability index under setting [1] is 0.725 ± 0.0078 and the protein stability index (genetic background: wild type) was 0.691 ± 0.0088.
For LINGTRIMNSIS [VPS33 C-terminal 12 aa] the same measures were 0.684 ± 0.01 and 0.532 ± 0.0095.
As to LISFGMGNTQVI [CLN2 C-terminal 12 aa], the protein stability index by setting is: under setting [1], 0.699 ± 0.031; (genetic background: wild type) 0.6846 ± 0.004.
For “LITSHCCYWNKR [YBL039C-A C-terminal 12 aa]” the same measures were 0.6928 ± 0.0067 and 0.52 ± 0.033.
LKKIATKFWGKH [TRK2 C-terminal 12 aa] registered a protein stability index under setting [1] of 0.697 ± 0.016 and a protein stability index (genetic background: wild type) of 0.714 ± 0.066.
For LKNYLEAQIAKK [YPR097W C-terminal 12 aa], in that order: 0.692 ± 0.03 and 0.721 ± 0.016.
For LKPWEGRIYLVK [MAL12 C-terminal 12 aa] the same measures were 0.6483 ± 0.0018 and 0.697 ± 0.022.
Regarding LKQKALVAAKQS [YJR015W C-terminal 12 aa], the protein stability index is, setting by setting: under setting [1], 0.679 ± 0.024; (genetic background: wild type) 0.319 ± 0.03.
For LKSIYTSERITI [RAD61 C-terminal 12 aa] the same measures were 0.707 ± 0.04 and 0.667 ± 0.025.
LKTPQEYESKAK [BOL1 C-terminal 12 aa]: the protein stability index under setting [1] was found to be 0.702 ± 0.02 and the protein stability index (genetic background: wild type) was found to be 0.753 ± 0.069.
Regarding “LLAKQLLLLLLR [YER079C-A C-terminal 12 aa]”, the protein stability index under setting [1] was 0.33 ± 0.018 and the protein stability index (genetic background: wild type) was 0.342 ± 0.0063.
For LLEDEDRTYNYT [KCH1 C-terminal 12 aa] the same measures were 0.6892 ± 0.0059 and 0.718 ± 0.069.
Take LLHYQSWHFSIY [YJL007C C-terminal 12 aa]: the protein stability index under setting [1] amounted to 0.707 ± 0.035 and the protein stability index (genetic background: wild type) came to 0.407 ± 0.026.
For LLLAGRKLSLDK [ARK1 C-terminal 12 aa], in that order: 0.694 ± 0.016 and 0.715 ± 0.023.
For LLLQFPPYLPHD [LAG2 C-terminal 12 aa] the same measures were 0.75 ± 0.019 and 0.7442 ± 0.0048.
For “LLPLIYLINKSL [YMR013C-A C-terminal 12 aa]”, in that order: 0.622 ± 0.014 and 0.199 ± 0.022.
For LLRKHVFPSVPK [VFA1 C-terminal 12 aa], the protein stability index reads like this: under setting [1], 0.732 ± 0.026; (genetic background: wild type) 0.738 ± 0.031.
For LLSAILDPSKSK [MED11 C-terminal 12 aa] the same measures were 0.709 ± 0.021 and 0.699 ± 0.046.
For the sequence “LLSLPSSTLTKS [YIL068W-A C-terminal 12 aa]”, the protein stability index under setting [1] is 0.703 ± 0.025 and the protein stability index (genetic background: wild type) was found to be 0.702 ± 0.0086.
For LLTYFRKHVKDT [SCC2 C-terminal 12 aa], the protein stability index is 0.714 ± 0.043 under setting [1] and 0.572 ± 0.054 (genetic background: wild type).
Take LLYPVKSESSTV [PDR16 C-terminal 12 aa]: the protein stability index was 0.68 ± 0.013 under setting [1] and 0.676 ± 0.01 (genetic background: wild type).
For LMILGNFMPILN [ERT1 C-terminal 12 aa], in that order: 0.6909 ± 0.0037 and 0.5655 ± 0.0049.
For LPFQKLKHLIKK [MRX11 C-terminal 12 aa] the same measures were 0.707 ± 0.031 and 0.706 ± 0.046.
For LPLYYVYQCDMI [YDR094W C-terminal 12 aa], the protein stability index stood at 0.6642 ± 0.0046 under setting [1] and 0.643 ± 0.052 (genetic background: wild type).
For “LPVSDSRCYYIL [YML031C-A C-terminal 12 aa]”, the protein stability index was found to be 0.6921 ± 0.0021 under setting [1] and 0.343 ± 0.013 (genetic background: wild type).
For LPYRMLIRMYPV [YEL014C C-terminal 12 aa], in that order: 0.5232 ± 0.0025 and 0.5345 ± 0.0047.
LQTMSFLMNHLI [YJL032W C-terminal 12 aa]: the protein stability index is, setting by setting: under setting [1], 0.6597 ± 0.0011; (genetic background: wild type) 0.23 ± 0.042.
